Assay results as given in patent publication US20120114682A1 (GEORGIA TECH RESEARCH, published 2012).
Values belong to the binder of their own block, whether it stands above or below them. Where no end group is shown, it is not given here.

What was measured:
Fibrinogen fragment D [1] = biological target: T1, Fibrinogen fragment D (human, UniProt P02671 130-216; P02675 164-491; P02679 114-432, limits assumed); test: affinity purification from plasmin-digested fibrinogen, elution with 1 M sodium bromide
T1 construct: domain: Fragment D (or D-domain); Made by plasmin digestion of human fibrinogen and purified on GPRPAA beads; holds the C-terminal polymerization pockets without the N-terminal knobs; immobilised by amine coupling on the SPR chip; also called D-domain
T1 sequence (looked up) 1: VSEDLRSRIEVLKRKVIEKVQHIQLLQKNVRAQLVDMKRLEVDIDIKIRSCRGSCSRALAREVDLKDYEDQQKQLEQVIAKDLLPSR
T1 sequence (looked up) 2: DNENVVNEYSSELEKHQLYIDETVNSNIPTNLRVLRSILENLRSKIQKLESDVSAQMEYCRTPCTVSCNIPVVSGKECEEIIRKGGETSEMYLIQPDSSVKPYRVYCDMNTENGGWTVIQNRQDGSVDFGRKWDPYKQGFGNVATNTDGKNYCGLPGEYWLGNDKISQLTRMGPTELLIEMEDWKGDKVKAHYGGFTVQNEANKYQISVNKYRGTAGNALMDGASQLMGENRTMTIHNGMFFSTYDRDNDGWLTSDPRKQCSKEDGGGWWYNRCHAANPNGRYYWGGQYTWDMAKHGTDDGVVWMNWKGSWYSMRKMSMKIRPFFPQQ
T1 sequence (looked up) 3: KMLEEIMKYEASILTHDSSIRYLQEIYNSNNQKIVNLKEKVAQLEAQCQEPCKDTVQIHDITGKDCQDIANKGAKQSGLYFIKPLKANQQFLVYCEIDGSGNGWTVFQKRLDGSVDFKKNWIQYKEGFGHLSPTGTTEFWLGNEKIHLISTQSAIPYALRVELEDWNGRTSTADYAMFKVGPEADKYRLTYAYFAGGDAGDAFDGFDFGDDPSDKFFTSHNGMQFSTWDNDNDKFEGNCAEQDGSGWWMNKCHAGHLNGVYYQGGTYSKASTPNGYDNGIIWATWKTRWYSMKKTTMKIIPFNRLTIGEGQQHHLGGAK
Procedure: Human fibrinogen (# FIB3, Enzyme Research Laboratories, South Bend, Ind.) at 2 mg/mL was digested with 0.1 U/mL human plasmin (Enzyme Research Laboratories) in HEPES+Ca buffer (150 mM NaCl, 5 mM CaCl₂, 25 mM HEPES, pH 7.4) overnight at room temperature. Fragment D (or D-domain) was isolated as previously described, with slight modifications, using a polymeric resin with covalently linked GPRPAA (SEQ ID NO:10) peptide (Kostelansky M S, et al. Biochemistry 2002, 41(40):12124-12132). Briefly, the plasmin-digested fibrinogen and GPRPAA-beads were incubated for 30 min, with occasional agitation. The unbound protein fragments were removed with exhaustive washing with HEPES+Ca buffer. Fragment D was eluted using 1 M sodium bromide, 50 mM sodium acetate, pH 5.3 and exchanged back into HEPES+Ca buffer using a centrifugal filter with MWCO 10,000.

Fibrinogen fragment D [2] = biological target: T1, Fibrinogen fragment D; test: SPR competition with GPRP-FnIII9-10 on immobilised fragment D

binding result (Fibrinogen fragment D [1]): binds
Binder: GPRPAA (not fully specified, also called GPRPAA-beads) [GPRPAA peptide covalently linked to a polymeric resin]

binding result (Fibrinogen fragment D [2]): binds
B1: GPRP tetrapeptide (peptide)
peptide: GPRP
notes: Synthetic (Genscript); also called A-knob tetrapeptide mimetic; soluble GPRP peptide
